Test results from US20190177396A1 (INSERM INSTITUTE NATIONAL DE LA SANTE ET DE LA RECHERCHE …, published 2019).
Each block holds one molecule with its values, some of them ahead of it.

Experiments:
the 23-mer peptide = test: BIAcore; format not described
[1] = target: CD31shed (residual cell-bound human CD31 after shedding between the 5th and 6th extracellular Ig-like domains) (human) (UniProt P16284); test: 10-colour flow cytometry on human peripheral blood leukocytes of a healthy donor, WM59-PE against PECAM 1.2-FITC; gate CD20 = B lymphocytes
[2] = target: CD31shed (residual cell-bound human CD31 after shedding between the 5th and 6th extracellular Ig-like domains) (human) (UniProt P16284); test: 10-colour flow cytometry on human peripheral blood leukocytes of a healthy donor, WM59-PE against PECAM 1.2-FITC; gate 3 (CD4) = naive CD4+ T cells
[3] = target: CD31shed (residual cell-bound human CD31 after shedding between the 5th and 6th extracellular Ig-like domains) (human) (UniProt P16284); test: 10-colour flow cytometry on human peripheral blood leukocytes of a healthy donor, WM59-PE against PECAM 1.2-FITC; gate 3 (CD8) = naive CD8+ T cells
[4] = target: CD31shed (residual cell-bound human CD31 after shedding between the 5th and 6th extracellular Ig-like domains) (human) (UniProt P16284); test: 10-colour flow cytometry on human peripheral blood leukocytes of a healthy donor, WM59-PE against PECAM 1.2-FITC; gate 2 (CD8) = memory CD8+ T cells
[5] = target: CD31shed (residual cell-bound human CD31 after shedding between the 5th and 6th extracellular Ig-like domains) (human) (UniProt P16284); test: 10-colour flow cytometry on human peripheral blood leukocytes of a healthy donor, WM59-PE against PECAM 1.2-FITC; gate 1 (CD4) = activated CD4+ T cells
[6] = target: human CD31 (PECAM-1) (human) (UniProt P16284); test: 10-colour flow cytometry on human peripheral blood leukocytes of a healthy donor, WM59-PE against PECAM 1.2-FITC; gate CD20 = B lymphocytes
[7] = target: human CD31 (PECAM-1) (human) (UniProt P16284); test: 10-colour flow cytometry on human peripheral blood leukocytes of a healthy donor, WM59-PE against PECAM 1.2-FITC; gate 3 (CD4) = naive CD4+ T cells
[8] = target: human CD31 (PECAM-1) (human) (UniProt P16284); test: 10-colour flow cytometry on human peripheral blood leukocytes of a healthy donor, WM59-PE against PECAM 1.2-FITC; gate 3 (CD8) = naive CD8+ T cells
[9] = target: human CD31 (PECAM-1) (human) (UniProt P16284); test: 10-colour flow cytometry on human peripheral blood leukocytes of a healthy donor, WM59-PE against PECAM 1.2-FITC; gate 2 (CD8) = memory CD8+ T cells
[10] = target: human CD31 (PECAM-1) (human) (UniProt P16284); test: 10-colour flow cytometry on human peripheral blood leukocytes of a healthy donor, WM59-PE against PECAM 1.2-FITC; gate 1 (CD4) = activated CD4+ T cells
[11] = target: the molecule itself; test: SPR (BIAcore 2000), peptide coated on CM5 chip, same peptide injected at 12.5-100 µM
Protocol: Plasmon Surface Resonance. Homophilic binding association and dissociation constants were calculated by surface plasmon resonance (BIAcore® 2000, GE). […] Dissociation was monitored for 300 seconds. Association (kon) and dissociation (koff) constants were calculated using the BIAevaluation 3.0 Software (GE).

- Kd (the 23-mer peptide): 17 µM
Molecule: alternatively spliced soluble CD31 (receptor)

- percent of gated cells in the lower right quadrant (dom1-/dom6+) [1]: 12
- percent of gated cells in the lower right quadrant (dom1-/dom6+) [2]: 28.1
- percent of gated cells in the lower right quadrant (dom1-/dom6+) [3]: 23.5
- percent of gated cells in the lower right quadrant (dom1-/dom6+) [4]: 29.7
- percent of gated cells in the lower right quadrant (dom1-/dom6+) [5]: 90.6
Molecule: anti-CD31 monoclonal antibody clone PECAM 1.2

- percent of gated cells in the upper right quadrant (dom1+/dom6+) [6]: 88
- percent of gated cells in the upper right quadrant (dom1+/dom6+) [7]: 71.9
- percent of gated cells in the upper right quadrant (dom1+/dom6+) [8]: 76.5
- percent of gated cells in the upper right quadrant (dom1+/dom6+) [9]: 70.3
- percent of gated cells in the upper right quadrant (dom1+/dom6+) [10]: 9.4
Molecule: anti-CD31 monoclonal antibody clone WM-59

B1: mouse CD31 peptide 551-574 (peptide)
peptide: SSMRTSPRSSTLAVRVFLAPWKK
notes: Synthetic peptide, juxta-membrane 23 amino acids of the mouse CD31 ectodomain; In the SPR assay it was both coated on the CM5 chip and injected as analyte
- Kd [11]: 17.8 µM
- koff [11]: 0.00158 s⁻¹
- kon [11]: 134 M⁻¹ s⁻¹
